Molecular target: T1, human CD47 on CCRF-CEM cells (CD47 positive cells) (human, UniProt Q08722 19-323)
T1 construct: whole, on cells; also called hCD47-expressing tumor cells CCRF-CEM; CD47 receptor on the cell surface
Assay: CD47-SIRPα blocking experiment, FIG. 5 legend

binding result: binds
B1: hybridoma positive clone 10B8 (antibody, V domains shown)
VH: QIQLQQSGPDLVKPGASVKISCKASGYTFTDYYIHWMKQKPGQGLEWIGWIYPGSGNTKYNEKFKGKATLTVDTSSSTPYMQLSSLTSEDTAVYFCARRREDSFDYWGQVTTLTVSS
VL: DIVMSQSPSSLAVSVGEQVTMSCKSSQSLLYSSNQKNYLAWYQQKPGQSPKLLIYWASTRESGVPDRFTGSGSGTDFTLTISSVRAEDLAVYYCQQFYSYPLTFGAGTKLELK
notes: Mouse hybridoma supernatant in the assay; Variable regions are printed for subclone 10B8-B8; also called Clone 10B8-B8
